B1: TPR t1 (parent)
chain: GACCAAUCUGCCCUCAGAGCUCGAGAACAUCUUCGGAUGCAGAGGAGGCAGGCUUCGGUGGCGCGAUAGCGCCAACGUCCUCAACCUCCAAUGCAUCCCACCACAUGAUGAUGCCUGAAGAGCCUUGGUUUUUUG

Variants of: B1
Assay: polymerase ribozyme fitness, log enrichment relative to wild type (log ratio); higher = more active; in vitro selection for triplet polymerase activity
Summary of the method: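 Fitness compares each genotype's enrichment to that of the wild type on a logarithmic scale, averaging replicates with inverse-variance weights. The logarithm is base 2. Enrichment came from Illumina sequencing of input and output libraries after one triplicate round of in vitro selection, which included frozen incubation at −7 °C, of PCR-built, transcribed mutant libraries of each subunit of a heterodimeric triplet polymerase ribozyme. Only genotypes with ≥10 input reads and ≥1 read per output were kept.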

Variant | polymerase ribozyme fitness (log ratio)
GACCAAUCUGCCCUCAGAGCUCGAGAACAGCUUGGGAUGUAGAGGAGGCAGGCUUCGGUGGCGCGAUAGCGCUAACGUCCUCAACCUCCACUGCAUCCCACCACAUGAUGAUGUCUGAAGAGCCUUGGUUUUUUG [U30G C34G C40U C73U A91C C114U] | -7.29
GACCAAUCUGCCCUCAGAGCUCGAGAACAUAUUCGGAUGCAGAGGAGGCAGGCUUCGGUGGCGCGAUAGCGCCAACGUCCUCAACCUCCAAUGCAUCCCACCACAUGAUGACGCCUGAAGAGCCUUGGUUUUUUG [C31A U112C] | -3.86
GACCAAUCUGCCCUCAGAGCUCGAGAACAUAUUCGGAUGCAGAGGAGGCAGGCUUCGGUGGCGCGAUAGCGCCAACGUCCUCAACCUCCAAUGCAUCCCACCACAUGAUGAUGCAUGAAGAGCCUUGGUUUUUUG [C31A C115A] | -4.37
GACCAAUCUGCCCUCAGAGCUCGAGAACAUAUUCGGAUGCAGAGCAGGUAGGCUUCGGUGGCGCGAUAUCGCCAACGUCCUUAACCUCCAAUGCAUCCCACCACAUAAUGAUGCCUGAAGAGCCUUGGUUUUUUG [C31A G45C C49U G69U C82U G107A] | -5.05
GACCAAUCUGCCCUCAGAGCUCGAGAACAUAUUCGGAUGCAGAGGAGGCAGGCUUCGGUGGCGCGAUAGCGCCAACGUCCUCAACCUUCAAUGCAUCCCACCACAUGAUGAUGCCUGAAGGGCCUUGGUUUUUUG [C31A C88U A121G] | -2.7
GACCAAUCUGCCCUCAGAGCUCGAGAACAUAUUCGGAUGCAGAGGAGGCAGGCUUCGGUGGCGCGAUAGCGUCAACGUCCUCAACCUCCAAGGCAUCCCACCACAUGAUGAUUCCUGAAGAGCCUUGGUUUUUUG [C31A C72U U92G G113U] | -6.05
GACCAAUCUGCCCUCAGAGCUCGAGAACAGCUUCGGAUGCAGAGGAGGCAGGCUUCGGUGGCGCGAUAUCGCCAACGUCCUCAACCUCCAAUGCAUCCCACCACAUGAUGAUGCCUGAAAAGCCUAGGUUGUUUG [U30G G69U G120A U126A U131G] | -4.39
GACCAAUCUGCCCUCAGAGCUCGAGAACAUGUUCGGUUGCAGAGGAGGCAGGCUUCGGUGGCGCGAUAGCACCAAUGGCCUCAACCUCCAAUGCAUCCCACCACCUGAUCAUGCCUGAAGAGCCUUGGUUUUUUG [C31G A37U G71A C76U U78G A105C G110C] | -6.15
GACCAAUCUGCCCUCAGAGCUCGAGAACAUGUUCGGAUGCAGAGGAGGCAGGAUUCGGUGGCGCGAUAGCGCCAACGUCCUCAACCUCCAAUGCAUCCCACCACAUCAUGAUGCCUGAAGAGCCUUGGUUUUUUG [C31G C53A G107C] | -1.38
GACCAAUCUGCCCUCAGAGCUCGAGAACACCUUCGGAUGCAGAGGAGGCAGGCAUCGGUGGCGCGAUAGCGCCAACGUCCUCAACCUCCAAUGCAUCCCACCACAUGAUGAUGCCUGAAGAGCCUUGGUUUUUUG [U30C U54A] | -2.81
GACCAAUCUGCCCUCAGAGCUCGAGAACAUAUUCGGAUGCAGAGGAGGCAGGCCUCGGUUGCGCGAUAGCGCCAACGUCCUCAACCUCCAAUGCAUCCCACCACAUGAUGAUGCCUGAAGCGCCUUGGUUUUUUG [C31A U54C G60U A121C] | -5.42
GACCAAUCUGCCCUCAGAGCUCGAGAACAGCUUCGGAUGCAGAGGAGGCAGGCUUCGGUGGCGCGAUAUCGCCAACGGCCUCAACCUCCAAUGCAUCCCACCACAUGAUGAUGCCUGAAGAGCCUUGGUUUUUUG [U30G G69U U78G] | -3.84
GACCAAUCUGCCCUCAGAGCUCGAGAACAUAUUCGGAUGCAGAGGAGGCGGGCUGCGGUGGCGCGAUAGCGCCAACGUCCUCAACCUCCAAUGCAUCCCACCACAUAAUGAUGCCUGAAGAGCUUUGGUUUUUUG [C31A A50G U55G G107A C124U] | -3.71
GACCAAUCUGCCCUCAGAGCUCGAGAACAUAUUCGGAUGCAGAGGUGGCAGGCUUCGGUGGCGCGAUAGCGACAACGUCCUCAACCUCCAAUGCAUCCCACCACAUGAUGAUGCCUGAAGAGCCUUGGUUUUUUG [C31A A46U C72A] | -5.82
GACCAAUCUGCCCUCAGAGCUCGAGAACAUAUUCGGAUGCAGAGGAGGCAGGCUUCGGUGGCGCGAUAGCGCAAACGUCCUCAACCUCCAAUGCAUCCCACCACAUGAUGAUGCCUGAAGAGCCUUGGUUUUUUG [C31A C73A] | -5.35
GACCAAUCUGCCCUCAGAGCUCGAGAACAGCUUCGGAUGCAGAGGAGGCAGGCUUGGGUGGCGCGAUAGCGCCAACGUCCUCAACCUCCAAUGCAUCCCACCACAAGAUGAUGCCUGAAGAGCCAUGGUUUUUUG [U30G C56G U106A U125A] | -2.32
GACCAAUCUGCCCUCAGAGCUCGAGAACAGCUUCGGAUGCAGAGGAGGCAGGCUUCGGUCGCGCGAUAGCGCCAACGUCCUCAACCUCCAAUGCAUCCCACCACAUGAUGAUGCCUGAAGAGCUUUGGUUUUUUG [U30G G60C C124U] | -5.4
GACCAAUCUGCCCUCAGAGCUCGAGAACAUAUUCGGAUGCAGAGGAGGCAGGCUUCGGUGGCGCGAUAGCGUCAACGUCCUCAACCUCCAAUGCAUCCCACCACAUGAUGAUGCCUGAAGAGCCUUGGUUUUUUG [C31A C72U] | -5.82
GACCAAUCUGCCCUCAGAGCUCGAGAACAUAUUCGGAUGCAGAGGAGGCAGGCUUCGGUGGCGCGAUAGCGCCAACGUCCUCAACCUCCAAUGCAUCCCACCACAUGAUGAUGCCUGUAGAGCCUUGGUUUUUUG [C31A A118U] | -5.02
GACCAAUCUGCCCUCAGAGCUCGAGAACAGCUUCGGAUGCAGAGGAGGCAGGCUUCGGUGGCGCGAUACCGCCAACGUCCUCAACCUCCAAUGCAUCCCACCACAUGCUGAUGCCUGAAGAGCCUUGGUUUUUUG [U30G G69C A108C] | -0.59
GACCAAUCUGCCCUCAGAGCUCGAGAACACCUUCGGAUGCAGAGGAGGCAGGCUUCGGUGGCGCGAUAGCGCCAACGUCCUCAACCACCAAUGCAUCCCACCACAUGAUGAUGCCUGAAGAGCCUUGGUUUUUUG [U30C U87A] | -2.98

Variant | polymerase ribozyme fitness (log ratio)
GACCAAUCUGCCCUCAGAGCUCGAGAACAGCUUCGGAUGCAGUGUAAGAAGGCUUCGGUGGCGCGAUAGCGCCAACGUCCUCAACCUCCAAUGCAUCCCACCACAAGAUGAUGCCUGAGGAGCCUUGGUUUUUUG [U30G A43U G45U G47A C49A U106A A119G] | -4.24
GACCAAUCUGCCCUCAGAGCUCGAGAACAUAUUCGGAUGCAGAGGAGGCAGGCAUCGGUGGCGCGAUAGCGCCAACGUCCUCAACCUCAAAUGCAUCCCACCACAUGAUGAUGCCUGAAGUGCCUUGGUUUUUUG [C31A U54A C89A A121U] | -7.04
GACCAAUCUGCCCUCAGAGCUCGAGAACAGCUUCGGAUGCAGAGGAGGCAGGCUUCGGUGGCGCGAUAGGGCCAACGUCCUCAACCUCAAAUGCAUCCCACCACAUGAUGGUGCCUGAAGAGCCUUGGUUUUUUG [U30G C70G C89A A111G] | -7.35
GACCAAUCUGCCCUCAGAGCUCGAGAACACCUUCGGAUGCAGAGGAGGCAGGCUUCGGUGGCGCGAUAGCGCCAACGUCCUCAACCUCCAAUGCAUCCCACCACAAGAUGAUGCCUGAAGAGCCUUGGUUUUUUG [U30C U106A] | -1.11
GACCAAUCUGCCCUCAGAGCUCGAGAACAUGUUCGGAUGCAGAGGAGGCAGGCUUUGGUGACGCGAUAACGCCAACGUCCUCAACCGCCAAUGCAUCCCACCACAUGAUGAUGCCUGAAGAGGCUUGGUUUUUUG [C31G C56U G61A G69A U87G C123G] | -7.19
GACCAAUCUGCCCUCAGAGCUCGAGAACAUAUUCGGAUGCAGAUGACGCAGGCUUCGGUGGCGCGAUAGCGCCAACGGCCUCAACCUCCAAUGCAUCCCACCACAUGAUGAUGCCUGAACAGCCUUUGUUUUUUG [C31A G44U G47C U78G G120C G127U] | -6.6
GACCAAUCUGCCCUCAGAGCUCGAGAACAUGUUUGGAUGCAGAGGAGGCAGGCUUCGGUGGCGCGAUAGCGCCAACGUCCUCAACCUCCAAUGCAUCCCACCACAUGAGCAUGCCUGAAGAGCCUUGGUUUUUUG [C31G C34U U109G G110C] | -6.14
GACCAAUCUGCCCUCAGAGCUCGAGAACAGCUUGCGAUGCUGAGGAGGCAGGUUUCGGUGGCGCGAUAGCGCCAAUGUCCUCAACCUCCAAUGCAUCCCACCACAUGAUGAUGCCUGAAGAGCGUUGGUUUUUUG [U30G C34G G35C A41U C53U C76U C124G] | -8.38
GACCAAUCUGCCCUCAGAGCUCGAGAACAUAUUCGGAUGCAGAGGAGGCAGGCUUCGGUGGCGCGAUAGCGCCAACGUCCUCAACCUCCAAUGCAGCCCACCACAUGAUGAUGCCUGAAGGGCCUUGGUUUUUUG [C31A U96G A121G] | -4.67
GACCAAUCUGCCCUCAGAGCUCGAGAACAUAUUCGGAUGCAGAGGAGGCAGGCUUCGGUGGCGCGAUAGCGCCAACGUCCUCAACCUCCAAUGCAUCCCACCACAGUAUGAUGCCUGAAGAGCCUUGGUUUUUUG [C31A U106G G107U] | -1.91
GACCAAUCUGCCCUCAGAGCUCGAGAACAUAUUCGGAUGCAGAGGAGGCAGGCUUCGGUGGCGCGAUAGCGCCAACGUCCUCAACCUCCAAUGCAUCCCACCACAUGAUGAUGCCUGAACAGCCUUGGUUUUUUG [C31A G120C] | -4.32
GACCAAUCUGCCCUCAGAGCUCGAGAACAGCUUCGGAUGCAGAGGAGGCAGGCUUCGGUGGCGCGAUAGCGUCAACGUCAUCAACCUCCAAUGCAUCCCACCACAUGCUGAUGCCUGAAGAGCCUUGGUUUUUUG [U30G C72U C80A A108C] | -2.77
GACCAAUCUGCCCUCAGAGCUCGAGAACAUAUUCGGUUGCAGAGGAGGCAGGCUUCGGUGGCGCGAUAGCGCCAACGUCCUCAACCUACAAUGCAUCCCACCACAUGAUGGGGCCUGAAGAGCCUUGGAUUUUUG [C31A A37U C88A A111G U112G U129A] | -7.12
GACCAAUCUGCCCUCAGAGCUCGAGAACAGCUUCGGAUGCAGAGGAGGCAGGCUUCGGUCGCGCGAUAGCGCCAACGUCCUCAACCUCCAAUGCAUCCCACCACAUGAUGAAGCCUGAAGAGCCUUUGGUUUUUG [U30G G60C U112A G127U U129G] | -5.06
GACCAAUCUGCCCUCAGAGCUCGAGAACAUGUUCGGAUGCCGAGGAGGCAGGCUUCGCUGGUGCGAUAGCGCCAACGUCCUCAACCUCCAAUGCAUCCCACCACAUGAUGAUGCCUGAAGAGCCUUGGUUUUUUG [C31G A41C G58C C62U] | -8.8
GACCAAUCUGCCCUCAGAGCUCGAGAACAGCUUCGGAUGCAGAGGAGGCAGGCUUCGGUGGCGCGAUAGCGCCAACGUGCUCAACCUCCAAUGCAUCCCACCACAAGAUGAUGCCUGAAGAGCCUUGGUUUUUUG [U30G C79G U106A] | -3.54
GACCAAUCUGCCCUCAGAGCUCGAGAACAUGUUCGGAUGCAGAGGAGGCUGGCUUCGGUCGCGCGAUAGCGCCAACGUCCUCAACCUCCAAUGCAUCCCACCACAUGAUCAUGCCUGAAGAGCCUUGGUUUUUUG [C31G A50U G60C G110C] | -6.92
GACCAAUCUGCCCUCAGAGCUCGAGAACAUGUUCGGAUGCAGAGGAGGCAGGGUUCGGUGGCGCGAUAGCGCCAACGUCCUCAACCUCCUAUGCAUCCCACCACAUGAUGAUACCUGAAGAGCCUUGGUUUUUUG [C31G C53G A90U G113A] | -6.88
GACCAAUCUGCCCUCAGAGCUCGAGAACAGCUUCGGAUGCAGAGGAGGCAGGCUUCGGUGGCGCGAUAGCGCCAACGUCCUCAACCUCCAAUGCAUCCCACCACAUGAUGAUGCCUGAAGAGCCUUGGUUUUUUG [U30G] | -5.83
GACCAAUCUGCCCUCAGAGCUCGAGAACAUAUUCGGAUGCAGAGGAGGCAGGCUUCGGUGGCGCGAUAGAGCCAACGUCCUCCACCUCCAAUGCAUCCCACCACAUGAUGAUUCCUGGAGAGCCUUGGUUUUUUG [C31A C70A A83C G113U A118G] | -6.98
GACCAAUCUGCCCUCAGAGCUCGAGAACAUAUUCGGAUGCAGAGGAGGCAGGCUUCGGUGACGCGAUAGCGCCAACGUCCUCAACCUCCAAUGUAUUCCACCACAUGAUGAUGCCUGAAGAGUCUUGGUUUUUUG [C31A G61A C94U C97U C123U] | -6.35

— the RNAGym collection of RNA variant scans (doi:10.1073/pnas.2313332121)
